These results are taken from patent US20140315817A1 (ALBUMEDIX, published 2014).

This test has as its target T1, hsa-1: WT - Full Length HSA (human, UniProt P02768 25-609).
T1 construct: Yeast-expressed; also called HSA-wt; wt-HSA; not shown: Factor Xa cleavage site
The test can be described thus: method and origin of the value not stated.

B1: recombinant mouse FcRn (R&D Systems, cat#6775-FC-050) (receptor)
chain 1: SETRPPLMYHLTAVSNPSTGLPSFWATGWLGPQQYLTYNSLRQEADPCGAWMWENQVSWYWEKETTDLKSKEQLFLEALKTLEKILNGTYTLQGLLGCELASDNSSVPTAVFALNGEEFMKFNPRIGNWTGEWPETEIVANLWMKQPDAARKESEFLLNSCPERLLGHLERGRRNLEWKEPPSMRLKARPGNSGSSVLTCAAFSFYPPELKFRFLRNGLASGSGNCSTGPNGDGSFHAWSLLEVKRGDEHHYQCQVEHEGLAQPLTVDLDSSARSS
chain 2: IQKTPQIQVYSRHPPENGKPNILNCYVTQFHPPHIEIQMLKNGKKIPKVEMSDMSFSKDWSFYILAHTEFTPTETDTYACRVKHASMAEPKTVYWDRDM
notes: Bought reagent
Molecule B1 came in with a Kd of approximately 80 µM.

As usually defined, the Kd is the free concentration of one partner at which half of the binding sites on the other are occupied at equilibrium, for simple one-to-one binding. Lower therefore signals tighter binding.
